Experimental data taken from US10428140B2, “Anti-EphA4 antibody” (EISAI R&D MANAGEMENT CO., LTD., priority 2015, dated 2019).
Substitutions are numbered along the chain they refer to.

T1: human EphB6 (Homo sapiens, UniProt O15197)
T1 construct: a protein of the extracellular region of each human Eph receptor fused with the SEAP protein and the His tag; made in house; host or cells: Expi293F cells
T1 sequence (O15197 32-594 limits assumed): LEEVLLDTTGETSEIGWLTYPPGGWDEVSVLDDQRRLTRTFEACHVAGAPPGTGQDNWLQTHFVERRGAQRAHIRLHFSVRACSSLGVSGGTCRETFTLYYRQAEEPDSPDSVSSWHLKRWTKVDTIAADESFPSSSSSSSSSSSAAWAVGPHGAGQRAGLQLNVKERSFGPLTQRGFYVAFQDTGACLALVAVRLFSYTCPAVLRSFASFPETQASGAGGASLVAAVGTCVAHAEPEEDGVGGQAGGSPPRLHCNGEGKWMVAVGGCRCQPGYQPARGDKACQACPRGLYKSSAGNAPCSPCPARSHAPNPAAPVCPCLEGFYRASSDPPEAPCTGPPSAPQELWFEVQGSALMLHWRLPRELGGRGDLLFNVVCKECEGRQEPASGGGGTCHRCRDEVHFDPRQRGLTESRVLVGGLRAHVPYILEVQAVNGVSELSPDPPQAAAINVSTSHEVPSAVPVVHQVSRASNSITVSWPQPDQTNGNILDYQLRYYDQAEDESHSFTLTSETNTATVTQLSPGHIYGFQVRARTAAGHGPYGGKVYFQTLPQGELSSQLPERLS

T2: human EphB1 (Homo sapiens, UniProt P54762)
T2 construct: a protein of the extracellular region of each human Eph receptor fused with the SEAP protein and the His tag; made in house; host or cells: Expi293F cells (culture supernatant)
T2 sequence (P54762 18-540 limits assumed): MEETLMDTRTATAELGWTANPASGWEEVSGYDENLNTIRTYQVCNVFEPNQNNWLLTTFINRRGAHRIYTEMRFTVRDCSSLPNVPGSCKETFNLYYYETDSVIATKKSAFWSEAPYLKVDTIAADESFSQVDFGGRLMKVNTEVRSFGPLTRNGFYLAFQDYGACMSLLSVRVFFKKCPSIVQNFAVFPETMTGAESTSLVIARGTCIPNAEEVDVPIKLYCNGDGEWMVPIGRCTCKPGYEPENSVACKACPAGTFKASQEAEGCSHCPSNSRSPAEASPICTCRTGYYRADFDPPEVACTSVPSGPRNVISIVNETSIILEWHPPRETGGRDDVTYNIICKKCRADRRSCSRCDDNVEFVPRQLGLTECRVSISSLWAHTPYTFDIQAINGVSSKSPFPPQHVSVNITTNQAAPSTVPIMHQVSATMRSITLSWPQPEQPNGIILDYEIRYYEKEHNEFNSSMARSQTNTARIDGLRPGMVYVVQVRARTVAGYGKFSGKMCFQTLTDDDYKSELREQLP

T3: human EphB4 (Homo sapiens, UniProt P54760)
T3 construct: a protein of the extracellular region of each human Eph receptor fused with the SEAP protein and the His tag; made in house; host or cells: Expi293F cells
T3 sequence (P54760 16-539 limits assumed): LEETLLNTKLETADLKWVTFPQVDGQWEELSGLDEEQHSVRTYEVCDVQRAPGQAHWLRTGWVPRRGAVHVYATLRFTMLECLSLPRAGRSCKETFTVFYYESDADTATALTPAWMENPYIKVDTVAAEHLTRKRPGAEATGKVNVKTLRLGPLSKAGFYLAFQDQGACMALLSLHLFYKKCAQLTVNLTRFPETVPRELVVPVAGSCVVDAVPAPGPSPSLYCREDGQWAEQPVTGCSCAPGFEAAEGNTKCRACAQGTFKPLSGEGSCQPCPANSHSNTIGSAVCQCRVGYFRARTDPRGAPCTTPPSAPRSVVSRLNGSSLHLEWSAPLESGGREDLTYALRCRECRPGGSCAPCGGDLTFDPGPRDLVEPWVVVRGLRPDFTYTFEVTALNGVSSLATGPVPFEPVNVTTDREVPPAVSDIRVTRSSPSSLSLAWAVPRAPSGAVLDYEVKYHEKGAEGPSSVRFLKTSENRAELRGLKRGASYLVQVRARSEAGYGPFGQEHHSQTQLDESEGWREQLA

B1: 77 (antibody, V domains shown)
VH: QVQLVQSGSELKKPGASVKVSCKASGYTFTDYSMHWVRQAPGQGLEWMGWINTETGEPTYADDFKGRFVFSLDTSVSTAYLQISSLKAEDTAVYYCARIPLYYYGSRYWYFDVWGQGTTVTVSS
VL: DIQMTQSPSSLSASVGDRVTITCRASENIYRNLAWYQQKPGKAPKLLVYAATNLADGVPSRFSGSGSGTDYTLTISSLQPEDFATYYCQHFWGTPWTFGQGTKVEIK
modifications: synthetic humanized antibody heavy chain variable region sequence; synthetic humanized antibody light chain variable region sequence
B2: 78 (antibody, V domains shown)
VH: B1 VH with E46K
VL: B1 VL
modifications: synthetic humanized antibody heavy chain variable region sequence; synthetic humanized antibody light chain variable region sequence
B3: 156 (antibody, V domains shown)
VH: B1 VH with V2I, E46K, D62Q, D63G, K65T
VL: B1 VL with K45Q, V48L
modifications: synthetic humanized antibody heavy chain variable region sequence; synthetic humanized antibody light chain variable region sequence
B4: 136 (antibody, V domains shown)
VH: B1 VH with E46K
VL: EIVMTQSPATLSVSPGERATLSCRASENIYRNLAWYQQKPGQSPRLLIYAATNLADGIPARFSGSGSGTEYTLTISSLQSEDFAVYYCQHFWGTPWTFGQGTKVEIK
modifications: synthetic humanized antibody heavy chain variable region sequence; synthetic humanized antibody light chain variable region sequence

Molecular target: T1, human EphB6
Test: Selectivity ELISA of humanized antibodies for human Eph receptor
Assay type: binding
Conditions: coated protein 1 nM
How it was run: (§1)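 Capture ELISA: anti-6-His coat, 1% BlockAce block, Eph ECD-SEAP-His (1 nM final, Expi293F supernatant) 1 h RT, humanized Ab 1 h RT, HRP anti-IgG 1 h RT, TMB, H2SO4 stop, A450.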

Point of comparison: B4, “hEphB6-SEAP-: absorbance at 450 nm, percentage with respect to hEphA4-SEAP-His as 100%” value 5.5%. Against it:
- B1 — lower, 4.5%
- B2 — lower, 5.2%
- B3 — higher, 5.7%

Molecular target: T2, human EphB1
Test: as above
Assay type: binding
Conditions: coated protein 1 nM
How it was run: as §1

Point of comparison: B4, “hEphB1-SEAP-: absorbance at 450 nm, percentage with respect to hEphA4-SEAP-His as 100%” value 5.2%. Against it:
- B1 — lower, 4.6%
- B2 — lower, 5.0%
- B3 — higher, 5.4%

Molecular target: T3, human EphB4
Test: as above
Assay type: binding
Conditions: coated protein 1 nM
How it was run: as §1

Point of comparison: B2, “hEphB4-SEAP-: absorbance at 450 nm, percentage with respect to hEphA4-SEAP-His as 100%” value 5.1%. Against it:
- B1 — lower, 4.5%
- B3 — higher, 5.6%
- B4 — higher, 5.2%
